{
  "source": "patent KR20200072008A",
  "about": "(dated 2020)",
  "binders": {"B1": {"name": "C16 IgG-HRP 접합체 (antibody, V domains shown)", "VH": "EVQLQQSGAELARPGASVQMSCKAFGYTFTNYTMHWVRQRPGQGLEWIGFINPSSDYTNYNQKFKDKATLSADKSSSTAYMQLSSLTSEDSAVYYCARRIFYNGRTYAAMDYWGQGTSVTVSS", "VL": "DIVMTQSPASLAVSLGQRATISCRASKSVSSSGYSYMHWYQQKPGQPPKLLIYLASNLESGVPARFSGSGSGTDFTLNIHPVEEEDAATYYCQHSRELPLTFGAGTKLELK"}},
  "molecular_target": "SNAP25 197 from lysate of BoNT/A treated N2-42F cells (mouse, UniProt P60879 1-197)",
  "sequence (P60879 1-197 limits assumed)": "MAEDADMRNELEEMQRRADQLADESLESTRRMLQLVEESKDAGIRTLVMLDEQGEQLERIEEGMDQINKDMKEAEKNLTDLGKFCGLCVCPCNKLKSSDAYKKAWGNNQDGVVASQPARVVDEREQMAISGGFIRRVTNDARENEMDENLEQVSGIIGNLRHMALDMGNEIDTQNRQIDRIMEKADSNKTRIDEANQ",
  "assay": "sandwich ELISA; detection of captured SNAP25 197 from N2-42F lysate",
  "data": [
    {"binder": "B1", "values": [
      {"measurement": "binding result", "value": "binds"}
    ]}
  ]
}
